Experimental findings from patent US20220267460A1 (MOMENTA PHARMACEUTICALS, published 2022) are described below.

Common to all, as to experiment: cell-based or functional assay
In experiment [1] the target is T1, human FcγRIIa-H variant (Histidine at amino acid 131) (human, UniProt P12318 34-317).
T1 sequence (looked up): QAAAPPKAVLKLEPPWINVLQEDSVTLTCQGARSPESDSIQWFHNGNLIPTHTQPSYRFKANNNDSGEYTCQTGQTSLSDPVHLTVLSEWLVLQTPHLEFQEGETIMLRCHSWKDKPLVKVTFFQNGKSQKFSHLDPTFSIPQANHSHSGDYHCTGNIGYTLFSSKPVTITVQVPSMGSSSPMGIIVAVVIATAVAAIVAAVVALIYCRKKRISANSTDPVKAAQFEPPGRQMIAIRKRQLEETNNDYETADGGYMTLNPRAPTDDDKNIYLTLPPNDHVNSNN

For experiment [2], the target named is T2, FcγRIIIa (UniProt P08637 17-254).
Experiment [3] addresses T2, FcγRIIIa. This is another data set of the same source.
For experiment [4], the target named is T1, human FcγRIIa-H variant (Histidine at …). The source holds these as a separate data set.

T2 sequence (P08637 17-254 F176V limits assumed): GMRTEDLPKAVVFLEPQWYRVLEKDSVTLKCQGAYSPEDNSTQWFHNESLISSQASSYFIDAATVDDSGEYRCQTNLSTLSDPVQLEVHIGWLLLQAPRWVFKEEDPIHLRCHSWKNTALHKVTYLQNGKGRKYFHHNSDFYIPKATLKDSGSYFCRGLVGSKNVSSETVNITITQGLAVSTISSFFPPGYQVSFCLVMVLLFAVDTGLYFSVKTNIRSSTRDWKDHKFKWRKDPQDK

B1: Fc-antigen binding domain construct 43 (PD-L1) (antibody, human IgG1, lambda)
heavy 1: not shown
chain: not shown
heavy 2: not shown
light: QSALTQPASVSGSPGQSITISCTGTSSDVGGYNYVSWYQQHPGKAPKLMIYDVSNRPSGVSNRFSGSKSGNTASLTISGLQAEDEADYYCSSYTSSSTRVFGTGTKVTVLGQPKANPTVTLFPPSSEELQANKATLVCLISDFYPGAVTVAWKADGSPVKAGVETTKPSKQSNNKYAASSYLSLTPEQWKSHRSYSCQVTHEGSTVEKTVAPTECS
For the molecule B1, the “EC50 (nM) Mean, FcγRIIa signaling in ADCP reporter assay (HEK-PD-L1 target cells, Jurkat/FcγRIIa-H effector cells, luciferase)” value in experiment [1] came to 0.037 nM. The “EC50 (nM) Mean, FcγRIIIa signaling in ADCC reporter assay (HEK-PD-L1 target cells, Jurkat/FcγRIIIa effector cells, luciferase)” value with FcγRIIIa [2] was determined as 0.028 nM.

B2: Fc-antigen binding domain construct 44 (PD-L1) (antibody, human IgG1, lambda)
heavy 1: not shown
chain: not shown
heavy 2: not shown
light: QSALTQPASVSGSPGQSITISCTGTSSDVGGYNYVSWYQQHPGKAPKLMIYDVSNRPSGVSNRFSGSKSGNTASLTISGLQAEDEADYYCSSYTSSSTRVFGTGTKVTVLGQPKANPTVTLFPPSSEELQANKATLVCLISDFYPGAVTVAWKADGSPVKAGVETTKPSKQSNNKYAASSYLSLTPEQWKSHRSYSCQVTHEGSTVEKTVAPTECS
Consider B2, for which the “EC50 (nM) Mean, FcγRIIa signaling in ADCP reporter assay (HEK-PD-L1 target cells, Jurkat/FcγRIIa-H effector cells, luciferase)” value in experiment [1] was 0.033 nM.

B3: Fc-antigen binding domain construct 43 (CD20) (antibody, human IgG1, kappa)
heavy 1: QVQLVQSGAEVKKPGSSVKVSCKASGYAFSYSWINWVRQAPGQGLEWMGRIFPGDGDTDYNGKFKGRVTITADKSTSTAYMELSSLRSEDTAVYYCARNVFDGYWLVYWGQGTLVTVSSASTKGPSVFPLAPSSKSTSGGTAALGCLVKDYFPEPVTVSWNSGALTSGVHTFPAVLQSSGLYSLSSVVTVPSSSLGTQTYICNVNHKPSNTKVDKKVEPKSCDKTHTCPPCPAPELLGGPSVFLFPPKPKDTLMISRTPEVTCVVVDVSHEDPEVKFNWYVDGVEVHNAKTKPREEQYNSTYRVVSVLTVLHQDWLNGKEYKCKVSNKALPAPIEKTISKAKGQPREPQVYTLPPCRDKLTKNQVSLWCLVKGFYPSDIAVEWESNGQPENNYKTTPPVLDSDGSFFLYSKLTVDKSRWQQGNVFSCSVMHEALHNHYTQKSLSLSPGKGGGGGGGGGGGGGGGGGGGGDKTHTCPPCPAPELLGGPSVFLFPPKPKDTLMISRTPEVTCVVVDVSHEDPEVKFNWYVDGVEVHNAKTKPREEQYNSTYRVVSVLTVLHQDWLNGKEYKCKVSNKALPAPIEKTISKAKGQPREPQVYTLPPSRKELTKNQVSLTCLVKGFYPSDIAVEWESNGQPENNYKTTPPVLKSDGSFFLYSKLTVDKSRWQQGNVFSCSVMHEALHNHYTQKSLSLSPGQ
chain: not shown
heavy 2: not shown
light: DIVMTQTPLSLPVTPGEPASISCRSSKSLLHSNGITYLYWYLQKPGQSPQLLIYQMSNLVSGVPDRFSGSGSGTDFTLKISRVEAEDVGVYYCAQNLELPYTFGGGTKVEIKRTVAAPSVFIFPPSDEQLKSGTASVVCLLNNFYPREAKVQWKVDNALQSGNSQESVTEQDSKDSTYSLSSTLTLSKADYEKHKVYACEVTHQGLSSPVTKSFNRGEC
For B3, the “EC50 (nM) Mean, FcγRIIIa signaling in ADCC reporter assay (Raji target cells, Jurkat/FcγRIIIa effector cells, luciferase)” value with FcγRIIIa [3] was 0.86 nM. In addition, the “EC50 (nM) Mean, FcγRIIa signaling in ADCP reporter assay (Raji target cells, Jurkat/FcγRIIa-H effector cells, luciferase)” value in experiment [4] stood at 7.8 nM.

B4: Fc-antigen binding domain construct 44 (CD20) (antibody, human IgG1, kappa)
heavy 1: QVQLVQSGAEVKKPGSSVKVSCKASGYAFSYSWINWVRQAPGQGLEWMGRIFPGDGDTDYNGKFKGRVTITADKSTSTAYMELSSLRSEDTAVYYCARNVFDGYWLVYWGQGTLVTVSSASTKGPSVFPLAPSSKSTSGGTAALGCLVKDYFPEPVTVSWNSGALTSGVHTFPAVLQSSGLYSLSSVVTVPSSSLGTQTYICNVNHKPSNTKVDKKVEPKSCDKTHTCPPCPAPELLGGPSVFLFPPKPKDTLMISRTPEVTCVVVDVSHEDPEVKFNWYVDGVEVHNAKTKPREEQYNSTYRVVSVLTVLHQDWLNGKEYKCKVSNKALPAPIEKTISKAKGQPREPQVYTLPPCRDKLTKNQVSLWCLVKGFYPSDIAVEWESNGQPENNYKTTPPVLDSDGSFFLYSKLTVDKSRWQQGNVFSCSVMHEALHNHYTQKSLSLSPGKGGGGGGGGGGGGGGGGGGGGDKTHTCPPCPAPELLGGPSVFLFPPKPKDTLMISRTPEVTCVVVDVSHEDPEVKFNWYVDGVEVHNAKTKPREEQYNSTYRVVSVLTVLHQDWLNGKEYKCKVSNKALPAPIEKTISKAKGQPREPQVYTLPPSRKELTKNQVSLTCLVKGFYPSDIAVEWESNGQPENNYKTTPPVLKSDGSFFLYSKLTVDKSRWQQGNVFSCSVMHEALHNHYTQKSLSLSPGQKGGGGGGGGGGGGGGGGGGGGDKTHTCPPCPAPELLGGPSVFLFPPKPKDTLMISRTPEVTCVVVDVSHEDPEVKFNWYVDGVEVHNAKTKPREEQYNSTYRVVSVLTVLHQDWLNGKEYKCKVSNKALPAPIEKTISKAKGQPREPQVYTLPPSRKELTKNQVSLTCLVKGFYPSDIAVEWESNGQPENNYKTTPPVLKSDGSFFLYSKLTVDKSRWQQGNVFSCSVMHEALHNHYTQKSLSLSPGQ
chain: not shown
heavy 2: not shown
light: DIVMTQTPLSLPVTPGEPASISCRSSKSLLHSNGITYLYWYLQKPGQSPQLLIYQMSNLVSGVPDRFSGSGSGTDFTLKISRVEAEDVGVYYCAQNLELPYTFGGGTKVEIKRTVAAPSVFIFPPSDEQLKSGTASVVCLLNNFYPREAKVQWKVDNALQSGNSQESVTEQDSKDSTYSLSSTLTLSKADYEKHKVYACEVTHQGLSSPVTKSFNRGEC
B4: the “EC50 (nM) Mean, FcγRIIIa signaling in ADCC reporter assay (Raji target cells, Jurkat/FcγRIIIa effector cells, luciferase)” value with FcγRIIIa [3] came to 0.055 nM. For the same molecule, the “EC50 (nM) Mean, FcγRIIa signaling in ADCP reporter assay (Raji target cells, Jurkat/FcγRIIa-H effector cells, luciferase)” value in experiment [4] came out at 0.17 nM.
